From PMC3535264 come the findings set out here.

Test [1] addresses tetrasome (DNA-(H3-H4)2 tetramer complex) (Xenopus laevis) (UniProt P84233). Put plainly: FRET or BRET. In general terms: BRET reads energy transfer from a luciferase to a nearby fluorophore.
Test [2] deals with mouse Nap1 (mNap1) single-cysteine mutant labeled with Alexa 546-C5-maleimide (mouse) (UniProt P28656). Put plainly: other fluorescence titration.

A word on the Kd: it is the equilibrium constant for the complex coming apart. A low value points to tighter binding. Consider “H2A-H2B_(A488) histone dimer (from UniProt P06897 1-130) (complex)”, for which the Kd in test [1] worked out at 0.8 nM.
The same measure, in the same setting: next, “H2A_(A488)-H2B histone dimer (from UniProt P02281 1-126) (complex)”: 0.7 nM.
Substance “uH2A containing histone dimer (uH2A-H2B) (from UniProt P0CG48 1-76; P02281 1-126) (complex)” showed an equilibrium dissociation constant (Kd) in test [2] of 0.5 nM.
As for “uH2B containing histone dimer (H2A-uH2B) (from UniProt P06897 1-130; P0CG48 1-76) (complex)”, in test [2], the Kd turned out to be 0.4 nM.
Take “unmodified H2A-H2B histone dimer (from UniProt P06897 1-130; P02281 1-126) (complex)”: the equilibrium dissociation constant (Kd) in test [2] was 0.8 nM.
